Key:
[1] = molecular target: the molecule itself; assay: SEC; FSEC of eGFP fusion constructs affinity purified in digitonin micelles; Superose 6 10/300, GFP fluorescence detected
[2] = molecular target: the molecule itself; assay: SEC; FSEC, thermal disassembly: protein diluted 200-fold into destabilizing buffer pH 6 without or with cAMP (up to 5 mM), heated 10 min to the desired temperature; ratio of monomer to dimer species (ρ) against temperature; dimer to monomers

| Protein | stoichiometry N [1] | binding result [2] | also measured |
| --- | --- | --- | --- |
| sp9C1 truncated at amino acid position 494, eGFP fusion (domain or fragment, Strongylocentrotus purpuratus, UniProt A3RL54 30-494, looked up, the ARD is deleted, the ion-exchange domain (ED) remains; source: HEK293F, transiently transfected; not shown: mEGFP, C-terminal, kept; Twinstrep, C-terminal, kept) SSGGSGHTPTTQATHADDHDLTTHNGTEEHDDGHDDGHDDLHAHAPKVIVFISGSCLFGAISRSLFKKLPIPYTVVLLILGAILGVVASNVPLVEEHTRDVAHMDPHVLLQIFLPVLIFESAFAMDVHTFMRSFSQVCILALFGLVVASVLTAVLAMNLFNYNWNFSEAMMFGAIMSATDPVAVVALLKDLGASKQLGTIIEGESLLNDGCAIVIFNVFMKMVFFPQLTSTVGQNVLYFLQVAVAGPLWGYAVAKVTVFFLSHIFNDALVEITITLAATYLTYYIGDIWLEVSGVLAVVVLGLIVNAEKTSISPEVEVFLHRFWEMLAYLANTLIFMMVGVVVTQKALVAVDKMDWFYLIILYLAITIIRGMVISLFSPILSRIGYGLTWRNAVIMTWGGLRGAVGLALALVVENLAGNDVIGSKFLFHTAGIVVLTLVINATTIQTLLRILGMSDISIPKRLAM | 2 |  |  |
| sp9C1 truncated at amino acid position 950, eGFP fusion (domain or fragment, Strongylocentrotus purpuratus, UniProt A3RL54 30-950, looked up, SLC9C1, Strongylocentrotus purpuratus, truncated at amino acid position 950; the CNBD, βR2 and the C-terminal tail are deleted; also called 950 construct; source: HEK293F, transiently transfected; not shown: mEGFP, C-terminal, kept; Twinstrep, C-terminal, kept) SSGGSGHTPTTQATHADDHDLTTHNGTEEHDDGHDDGHDDLHAHAPKVIVFISGSCLFGAISRSLFKKLPIPYTVVLLILGAILGVVASNVPLVEEHTRDVAHMDPHVLLQIFLPVLIFESAFAMDVHTFMRSFSQVCILALFGLVVASVLTAVLAMNLFNYNWNFSEAMMFGAIMSATDPVAVVALLKDLGASKQLGTIIEGESLLNDGCAIVIFNVFMKMVFFPQLTSTVGQNVLYFLQVAVAGPLWGYAVAKVTVFFLSHIFNDALVEITITLAATYLTYYIGDIWLEVSGVLAVVVLGLIVNAEKTSISPEVEVFLHRFWEMLAYLANTLIFMMVGVVVTQKALVAVDKMDWFYLIILYLAITIIRGMVISLFSPILSRIGYGLTWRNAVIMTWGGLRGAVGLALALVVENLAGNDVIGSKFLFHTAGIVVLTLVINATTIQTLLRILGMSDISIPKRLAMAGAVRRIHEGQNRTLNMLKSDRFLADADWDIATAACEISDPYSALSDDENAPADELTLGERKSVCPGCKAMVPNEPSPREFADMMEEARLRMLKAEKISYWKQFEHGMLAREALRLLVQHAEVAADEKDQFILVDDLKKSWQIKGIYPWLKRKLEDLISEKKIAAIPMPKYKLGKLMYKICHHMAFEVTINIAIVLNIVPIIMEFVVQDKMASVSTMAAPGSTVSSEPSSLQKIEDALRISNYVFFVIYAIEAIVKILGLGRHYIVSHWNKFDAFILVVALVDIIIAETLLKGSITINLSSIKVVKLFRLLRGLRMLRLTKALIPKLILVVNGKINNQLSLGYDVGKGYIIGEEEVGKIIDRMVDNKKILRELKHISETGRLQVVKELGLLQREHPGIAVSVKTRQAIRTILNHSRETIHELQGAGLLDEMEAHKLELTVEIKMKRLMNAPSSIPP | 2 |  |  |
| sp9C1-eGFP, full length (FSEC sample) (natural protein, Strongylocentrotus purpuratus, UniProt A3RL54 30-1325, looked up, SLC9C1 (sperm-specific Na+/H+ exchanger), Strongylocentrotus purpuratus, full length; followed by a PreScission site and mEGFP-Twinstrep; A PreScission protease site lies between SLC9C1 and the mEGFP-Twinstrep tag; also called FL; FL-sp9C1; source: HEK293F, transiently transfected; not shown: mEGFP, C-terminal, kept; Twinstrep, C-terminal, kept) SSGGSGHTPTTQATHADDHDLTTHNGTEEHDDGHDDGHDDLHAHAPKVIVFISGSCLFGAISRSLFKKLPIPYTVVLLILGAILGVVASNVPLVEEHTRDVAHMDPHVLLQIFLPVLIFESAFAMDVHTFMRSFSQVCILALFGLVVASVLTAVLAMNLFNYNWNFSEAMMFGAIMSATDPVAVVALLKDLGASKQLGTIIEGESLLNDGCAIVIFNVFMKMVFFPQLTSTVGQNVLYFLQVAVAGPLWGYAVAKVTVFFLSHIFNDALVEITITLAATYLTYYIGDIWLEVSGVLAVVVLGLIVNAEKTSISPEVEVFLHRFWEMLAYLANTLIFMMVGVVVTQKALVAVDKMDWFYLIILYLAITIIRGMVISLFSPILSRIGYGLTWRNAVIMTWGGLRGAVGLALALVVENLAGNDVIGSKFLFHTAGIVVLTLVINATTIQTLLRILGMSDISIPKRLAMAGAVRRIHEGQNRTLNMLKSDRFLADADWDIATAACEISDPYSALSDDENAPADELTLGERKSVCPGCKAMVPNEPSPREFADMMEEARLRMLKAEKISYWKQFEHGMLAREALRLLVQHAEVAADEKDQFILVDDLKKSWQIKGIYPWLKRKLEDLISEKKIAAIPMPKYKLGKLMYKICHHMAFEVTINIAIVLNIVPIIMEFVVQDKMASVSTMAAPGSTVSSEPSSLQKIEDALRISNYVFFVIYAIEAIVKILGLGRHYIVSHWNKFDAFILVVALVDIIIAETLLKGSITINLSSIKVVKLFRLLRGLRMLRLTKALIPKLILVVNGKINNQLSLGYDVGKGYIIGEEEVGKIIDRMVDNKKILRELKHISETGRLQVVKELGLLQREHPGIAVSVKTRQAIRTILNHSRETIHELQGAGLLDEMEAHKLELTVEIKMKRLMNAPSSIPPPPPENLLKNVSWLAGDMKLIDFIKARASLLHFDYGEVIVREGDESDGLFLIVSGLVKLYGKSAFLDHDNPPVTAGSEENEVFEDYLTVGNVIGEMGVLTKKPRNATVTCETTVQVYFITAEDMNIAIDTFTLYPSLEYRLWRVVAIRIATPLIMEQMAFQGWTQEKVKLHLERGYLVDLAESHFQFNIDATLEDVILINGTAYNAHTREEIRSPCLISRTVHKLTFQYTATEEPRLFVVRNAEYNGPILDGRLDVDSKRSLISITEISSNMCLKHAAELRQKNSKVMLSRKSSGAAAKEEEDCIPNTSDVEQAAGVSPSVPTKTTPKPKSFLPSLGLSMSKERVNGEAVEESPVKTKQGEETPETEEGAAPRVNV | 2 |  | ρsat (saturating ratio of monomer to dimer species), 5 mM cAMP [2]: 2.4; ρsat (saturating ratio of monomer to dimer species), cAMP-free [2]: ~0.9 |
| sp9C1 Y1035C mutant, eGFP fusion (natural protein, Strongylocentrotus purpuratus, UniProt A3RL54 30-1325, looked up, SLC9C1, Strongylocentrotus purpuratus, with Y1035C; source: HEK293F, transiently transfected; not shown: mEGFP, C-terminal, kept; Twinstrep, C-terminal, kept) SSGGSGHTPTTQATHADDHDLTTHNGTEEHDDGHDDGHDDLHAHAPKVIVFISGSCLFGAISRSLFKKLPIPYTVVLLILGAILGVVASNVPLVEEHTRDVAHMDPHVLLQIFLPVLIFESAFAMDVHTFMRSFSQVCILALFGLVVASVLTAVLAMNLFNYNWNFSEAMMFGAIMSATDPVAVVALLKDLGASKQLGTIIEGESLLNDGCAIVIFNVFMKMVFFPQLTSTVGQNVLYFLQVAVAGPLWGYAVAKVTVFFLSHIFNDALVEITITLAATYLTYYIGDIWLEVSGVLAVVVLGLIVNAEKTSISPEVEVFLHRFWEMLAYLANTLIFMMVGVVVTQKALVAVDKMDWFYLIILYLAITIIRGMVISLFSPILSRIGYGLTWRNAVIMTWGGLRGAVGLALALVVENLAGNDVIGSKFLFHTAGIVVLTLVINATTIQTLLRILGMSDISIPKRLAMAGAVRRIHEGQNRTLNMLKSDRFLADADWDIATAACEISDPYSALSDDENAPADELTLGERKSVCPGCKAMVPNEPSPREFADMMEEARLRMLKAEKISYWKQFEHGMLAREALRLLVQHAEVAADEKDQFILVDDLKKSWQIKGIYPWLKRKLEDLISEKKIAAIPMPKYKLGKLMYKICHHMAFEVTINIAIVLNIVPIIMEFVVQDKMASVSTMAAPGSTVSSEPSSLQKIEDALRISNYVFFVIYAIEAIVKILGLGRHYIVSHWNKFDAFILVVALVDIIIAETLLKGSITINLSSIKVVKLFRLLRGLRMLRLTKALIPKLILVVNGKINNQLSLGYDVGKGYIIGEEEVGKIIDRMVDNKKILRELKHISETGRLQVVKELGLLQREHPGIAVSVKTRQAIRTILNHSRETIHELQGAGLLDEMEAHKLELTVEIKMKRLMNAPSSIPPPPPENLLKNVSWLAGDMKLIDFIKARASLLHFDYGEVIVREGDESDGLFLIVSGLVKLYGKSAFLDHDNPPVTAGSEENEVFEDCLTVGNVIGEMGVLTKKPRNATVTCETTVQVYFITAEDMNIAIDTFTLYPSLEYRLWRVVAIRIATPLIMEQMAFQGWTQEKVKLHLERGYLVDLAESHFQFNIDATLEDVILINGTAYNAHTREEIRSPCLISRTVHKLTFQYTATEEPRLFVVRNAEYNGPILDGRLDVDSKRSLISITEISSNMCLKHAAELRQKNSKVMLSRKSSGAAAKEEEDCIPNTSDVEQAAGVSPSVPTKTTPKPKSFLPSLGLSMSKERVNGEAVEESPVKTKQGEETPETEEGAAPRVNV |  | binds |  |
| sp9C1 K880A mutant, eGFP fusion (natural protein, Strongylocentrotus purpuratus, UniProt A3RL54 30-1325, looked up, SLC9C1, Strongylocentrotus purpuratus, with K880A; also called R880A (as printed once); source: HEK293F, transiently transfected; not shown: mEGFP, C-terminal, kept; Twinstrep, C-terminal, kept) SSGGSGHTPTTQATHADDHDLTTHNGTEEHDDGHDDGHDDLHAHAPKVIVFISGSCLFGAISRSLFKKLPIPYTVVLLILGAILGVVASNVPLVEEHTRDVAHMDPHVLLQIFLPVLIFESAFAMDVHTFMRSFSQVCILALFGLVVASVLTAVLAMNLFNYNWNFSEAMMFGAIMSATDPVAVVALLKDLGASKQLGTIIEGESLLNDGCAIVIFNVFMKMVFFPQLTSTVGQNVLYFLQVAVAGPLWGYAVAKVTVFFLSHIFNDALVEITITLAATYLTYYIGDIWLEVSGVLAVVVLGLIVNAEKTSISPEVEVFLHRFWEMLAYLANTLIFMMVGVVVTQKALVAVDKMDWFYLIILYLAITIIRGMVISLFSPILSRIGYGLTWRNAVIMTWGGLRGAVGLALALVVENLAGNDVIGSKFLFHTAGIVVLTLVINATTIQTLLRILGMSDISIPKRLAMAGAVRRIHEGQNRTLNMLKSDRFLADADWDIATAACEISDPYSALSDDENAPADELTLGERKSVCPGCKAMVPNEPSPREFADMMEEARLRMLKAEKISYWKQFEHGMLAREALRLLVQHAEVAADEKDQFILVDDLKKSWQIKGIYPWLKRKLEDLISEKKIAAIPMPKYKLGKLMYKICHHMAFEVTINIAIVLNIVPIIMEFVVQDKMASVSTMAAPGSTVSSEPSSLQKIEDALRISNYVFFVIYAIEAIVKILGLGRHYIVSHWNKFDAFILVVALVDIIIAETLLKGSITINLSSIKVVKLFRLLRGLRMLRLTKALIPKLILVVNGKINNQLSLGYDVGKGYIIGEEEVGKIIDRMVDNKKILRELKHISETGRLQVVAELGLLQREHPGIAVSVKTRQAIRTILNHSRETIHELQGAGLLDEMEAHKLELTVEIKMKRLMNAPSSIPPPPPENLLKNVSWLAGDMKLIDFIKARASLLHFDYGEVIVREGDESDGLFLIVSGLVKLYGKSAFLDHDNPPVTAGSEENEVFEDYLTVGNVIGEMGVLTKKPRNATVTCETTVQVYFITAEDMNIAIDTFTLYPSLEYRLWRVVAIRIATPLIMEQMAFQGWTQEKVKLHLERGYLVDLAESHFQFNIDATLEDVILINGTAYNAHTREEIRSPCLISRTVHKLTFQYTATEEPRLFVVRNAEYNGPILDGRLDVDSKRSLISITEISSNMCLKHAAELRQKNSKVMLSRKSSGAAAKEEEDCIPNTSDVEQAAGVSPSVPTKTTPKPKSFLPSLGLSMSKERVNGEAVEESPVKTKQGEETPETEEGAAPRVNV |  | binds |  |
| sp9C1 truncated at amino acid position 657, eGFP fusion (domain or fragment, Strongylocentrotus purpuratus, UniProt A3RL54 30-657, looked up, the ARD is partly deleted; source: HEK293F, transiently transfected; not shown: mEGFP, C-terminal, kept; Twinstrep, C-terminal, kept) SSGGSGHTPTTQATHADDHDLTTHNGTEEHDDGHDDGHDDLHAHAPKVIVFISGSCLFGAISRSLFKKLPIPYTVVLLILGAILGVVASNVPLVEEHTRDVAHMDPHVLLQIFLPVLIFESAFAMDVHTFMRSFSQVCILALFGLVVASVLTAVLAMNLFNYNWNFSEAMMFGAIMSATDPVAVVALLKDLGASKQLGTIIEGESLLNDGCAIVIFNVFMKMVFFPQLTSTVGQNVLYFLQVAVAGPLWGYAVAKVTVFFLSHIFNDALVEITITLAATYLTYYIGDIWLEVSGVLAVVVLGLIVNAEKTSISPEVEVFLHRFWEMLAYLANTLIFMMVGVVVTQKALVAVDKMDWFYLIILYLAITIIRGMVISLFSPILSRIGYGLTWRNAVIMTWGGLRGAVGLALALVVENLAGNDVIGSKFLFHTAGIVVLTLVINATTIQTLLRILGMSDISIPKRLAMAGAVRRIHEGQNRTLNMLKSDRFLADADWDIATAACEISDPYSALSDDENAPADELTLGERKSVCPGCKAMVPNEPSPREFADMMEEARLRMLKAEKISYWKQFEHGMLAREALRLLVQHAEVAADEKDQFILVDDLKKSWQIKGIYPWLKRKLEDLISEKKI | 2 |  |  |
